Measurements reported in the RNAGym collection of RNA variant scans (doi:10.7554/elife.80360).

B1: CPEB3 Ribozyme (parent)
chain: GGGGGCCACAGCAGAAGCGUUCACGUCGCGGCCCCUGUCAGAUUCUGGUGAAUCUGCGAAUUCUGCUGU

Variants of: B1
Test: self-cleavage, relative activity (ratio to wild type); higher = more cleavage; co-transcriptional

Variant	self-cleavage
U21G G50C	0.616
U21G G50A	0.488
U20G G30U	0.191
U20G G30C	0.212
G19U C24U	0.169
G19U C24A	0.153
U21C U69A	0.885
U21C U69G	0.933
C22A A23U	0.281
C22A A23G	0.198
U20C C32U	0.248
U20C C32G	0.218
U21A G30A	0.866
U21A C22U	0.325
U21C A23G	0.76
U21G C57G	0.235
U20A G58C	0.164
U20G A59C	0.1
U21A A59U	0.891
U21C U55A	0.843
U21C U55G	0.723
U20G A51C	0.27
U20G A51U	0.219
U20A C35U	0.124

Variant	self-cleavage
U20A G47C	0.261
U20A G47U	0.179
U20G G28U	0.161
U21C U46C	0.89
U21G C45A	0.643
U21G C45U	0.593
U21G C45G	0.567
U20G U64A	0.152
U20G U64G	0.117
U21G C39A	0.396
U21G C39U	0.61
G19C G25U	0.145
U20C A42U	0.271
U20C A42C	0.199
G19C U44C	0.164
U20A U67A	0.12
G19C G48C	0.169
G19C G48A	0.189
G19C G48U	0.141
U20G C66A	0.23
U20G C66G	0.15
U21C G56C	0.426
U21C G28A	0.192
U21G G25A	0.284

Variant	self-cleavage
G19C U62C	0.123
G19C U62A	0.107
U21A C39A	0.911
G19U A59C	0.131
U21C C24A	0.376
G19C U61A	0.216
U20G G25C	0.227
U20C C66G	0.179
G19U C29U	0.117
U21C A42C	0.853
U20G U46G	0.189
U20C U61G	0.226
U20C G30A	0.17
U21C U44A	0.911
U21C U44C	0.824
U21C U44G	0.859
U20C G50C	0.102
U20C G50A	0.174
U21C G37U	0.264
U21C G37A	0.261
U20G G65C	0.166
G19C U46G	0.122
U21G U67A	0.549
U21G U67C	0.458

Variant	self-cleavage
U21G G56C	0.495
U21G G56A	0.774
U20C G56U	0.127
U20C G56C	0.203
U20A A59U	0.106
U20C C27A	0.17
G19U A60C	0.18
U21A G28U	0.241
U21C U61A	0.538
U20A A60U	0.117
G19U U20G	0.139
U21A C29A	0.686
U21C U67G	0.978
G19U G56U	0.281
U20A A42U	0.133
U20G U44A	0.271
U20G U44C	0.199
G19C U67C	0.203
G19U C32U	0.55
U20A A40U	0.0825
U20A A40C	0.188
U20C G65C	0.126
U20C G65U	0.18
U20A G41U	0.126

Variant	self-cleavage
U20A G41A	0.166
U20G G31U	0.128
U20C U55C	0.139
U20C U55G	0.203
U21C U43C	0.875
U21C U53G	0.724
U21G U46C	0.635
U21A C27G	0.222
U20C U62A	0.133
U20C U62G	0.278
U20A C33G	0.192
U20A C33A	0.166
U20A C33U	0.2
U20A U21G	0.2
U20A U21A	0.219
U21G G68U	0.701
U21G G68C	0.783
U20C U36G	0.116
U20C U36C	0.159
U20A C63U	0.16
U21G U61A	0.319
U21C C66A	0.611
U21C C57G	0.384
G19C G58A	0.162

Variant	self-cleavage
U21C G68C	0.899
U21C G68U	1
U20C G28U	0.208
G19U C35A	0.119
G19U C35U	0.262
G19C U69A	0.147
U20G U26A	0.163
U20G U26G	0.123
U21G A59U	0.219
U21G A59G	0.675
U21G G58A	0.281
U21C U64A	0.706
U20A C24G	0.0902
G19U U69G	0.819
G19C U49A	0.178
U21A U61C	0.728
U20C U44C	0.123
U20C U44G	0.149
U21C A60C	0.406
U20A G50A	0.147
U20C C54A	0.156
U21A G48C	1.01
G19U G47A	0.655
G19U G47C	0.677

Variant	self-cleavage
G19C U64A	0.176
G19C U64G	0.139
U21G C34G	0.193
U21G C34U	0.53
U20G G37U	0.182
U20A U43A	0.152
U21G C35G	0.225
U21G C35U	0.361
U21G C27U	0.112
U21G C27A	0.196
U20A C45G	0.149
U20A C45A	0.142
U21G G28C	0.162
U21G G28A	0.245
U20C G37C	0.0963
G19U C27U	0.158
U20C U21G	0.211
U20C U21C	0.197
U20G U36G	0.16
U20A G48U	0.104
U20A G48C	0.117
U21A C32A	0.808
U21A C32U	0.993
U20G C34A	0.223

Variant	self-cleavage
U20C C22A	0.201
U21A G37A	0.283
U21A G37C	0.217
U21G A42G	0.558
G19U C63U	0.318
G19U C63G	0.249
U21A C66U	0.985
U20G G50U	0.239
U21C C35A	0.229
U21C C27G	0.209
U20C G48C	0.229
U21G C54A	0.341
U21C U26A	0.216
G19C G56U	0.123
U21C A59C	0.351
U21G A52C	0.459
G19U G30C	0.186
G19U C34U	0.545
G19U C34G	0.232
G19U C34A	0.195
U20A U26A	0.0885
G19C G50C	0.148
U20A U69A	0.181
U20C A51C	0.259

Variant	self-cleavage
U20C A51U	0.172
U21G U38C	0.932
U20C A40U	0.227
U20C A40C	0.215
G19U C57A	0.224
U20G U69A	0.264
U21A U43C	0.909
G19C U43C	0.134
G19C U43G	0.122
G19U U21G	0.159
G19U U21A	0.31
U20A A23U	0.192
U20A A23G	0.041
U21A G58C	0.938
U21A G58U	0.996
U20C C24U	0.18
U20C C24A	0.191
U20C C24G	0.146
U21A C34G	0.606
G19C U53C	0.0977
U20C A23G	0.238
U21G G47A	0.715
U21G G47C	0.818
U21G G47U	0.638

Variant	self-cleavage
U20G C33U	0.145
U21C U62A	0.661
G19U C66U	0.382
U21G A60C	0.235
U20G U38G	0.123
U20A U38A	0.188
U20A U38C	0.107
U21G C24G	0.0852
U20A U36A	0.158
U21G C63G	0.158
U21G C63U	0.434
G19U G48C	0.699
G19U G48A	0.673
U21A G65A	0.862
U21A G65U	0.795
G19C G47A	0.169
U20G C24A	0.128
U21C A51G	0.914
U21C C29A	0.274
U21G G30C	0.232
U21G G30A	0.221
U21G G30U	0.214
U20G C29U	0.137
U20G G68U	0.183

Variant	self-cleavage
G19U U49A	0.639
U20A U49C	0.275
U20A U49G	0.199
G19U G50U	0.509
U20G U61A	0.207
U21C A52G	0.887
U21C A52U	0.93
U21C G31C	0.16
U21C G31A	0.569
U21A U62C	0.844
U21A G68A	1.02
U20C C57U	0.194
U20C C57A	0.232
U20C U53A	0.135
U20C U53G	0.167
U21G U26C	0.308
U21G U64G	0.295
U21G U64A	0.304
U21G U64C	0.254
G19U U53A	0.273
G19U U53C	0.242
G19U U53G	0.252
U20C U43A	0.227
U20C U43G	0.241

Variant	self-cleavage
U21C G48A	0.933
G19U U38C	0.252
U20G U67A	0.223
U20G U67C	0.237
G19U G28C	0.125
U20G U62C	0.244
U20G G58C	0.099
G19U C45A	0.459
U21A A42U	0.941
U21G A23G	0.549
U20G U43G	0.153
U21C C39G	0.895
U21A C24U	0.69
U20G G48C	0.224
U20A C54A	0.125
U21A U64G	0.898
U21G A40C	0.222
U20C C29G	0.165
U20G C32G	0.179
U21G G31C	0.181
U21A U67G	1.02
U20A U62G	0.0797
U20A U62C	0.148
U20G C22U	0.141

Variant	self-cleavage
U21G U36C	0.134
U21G U36G	0.232
U21A G31C	0.221
U20C U69G	0.394
U20C G68U	0.195
U20C G68C	0.211
U20G C57G	0.181
U20G C57A	0.124
G19U U44C	0.232
G19C U21G	0.161
G19U U36C	0.212
G19U U36A	0.164
U21C C33A	0.516
U21C C33G	0.217
U21C C22U	0.268
U21C C22G	0.0423
U21A C35G	0.198
G19U U55G	0.127
G19U U55A	0.209
U20G U21C	0.166
U20A G65A	0.156
U20A G37U	0.169
U21C C45G	0.864
U21G U49G	0.486

Variant	self-cleavage
U21G U49A	0.527
G19U G68A	0.793
U20A C39G	0.251
G19C G41U	0.129
U20C U67C	0.131
G19C G30U	0.157
U21G U53A	0.473
U20G C63A	0.157
U21A U55G	0.811
U21A U55A	0.916
U21G C29A	0.242
U21G G65A	0.255
G19U G58C	0.443
G19U A51C	0.432
U21A G50U	0.971
U20C A52G	0.161
U20A C27A	0.151
G19C U38A	0.218
G19C U38C	0.135
G19U A23G	0.262
U20G C27A	0.105
U20G C27G	0.177
